# From US20070172423A1, “Composition and method for modulating vasculogenesis for angiogenesis” (priority 1998, published 2007)
# T1: human VEGFR-3 (Homo sapiens, UniProt P35916)
# T1 construct: soluble Ig-fusion proteins containing the extracellular domains of human VEGFR-1, VEGFR-2 and VEGFR-3; made in house; host or cells: human 293 EBNA cells, transient expression
# T1 sequence (P35916 25-775 limits assumed): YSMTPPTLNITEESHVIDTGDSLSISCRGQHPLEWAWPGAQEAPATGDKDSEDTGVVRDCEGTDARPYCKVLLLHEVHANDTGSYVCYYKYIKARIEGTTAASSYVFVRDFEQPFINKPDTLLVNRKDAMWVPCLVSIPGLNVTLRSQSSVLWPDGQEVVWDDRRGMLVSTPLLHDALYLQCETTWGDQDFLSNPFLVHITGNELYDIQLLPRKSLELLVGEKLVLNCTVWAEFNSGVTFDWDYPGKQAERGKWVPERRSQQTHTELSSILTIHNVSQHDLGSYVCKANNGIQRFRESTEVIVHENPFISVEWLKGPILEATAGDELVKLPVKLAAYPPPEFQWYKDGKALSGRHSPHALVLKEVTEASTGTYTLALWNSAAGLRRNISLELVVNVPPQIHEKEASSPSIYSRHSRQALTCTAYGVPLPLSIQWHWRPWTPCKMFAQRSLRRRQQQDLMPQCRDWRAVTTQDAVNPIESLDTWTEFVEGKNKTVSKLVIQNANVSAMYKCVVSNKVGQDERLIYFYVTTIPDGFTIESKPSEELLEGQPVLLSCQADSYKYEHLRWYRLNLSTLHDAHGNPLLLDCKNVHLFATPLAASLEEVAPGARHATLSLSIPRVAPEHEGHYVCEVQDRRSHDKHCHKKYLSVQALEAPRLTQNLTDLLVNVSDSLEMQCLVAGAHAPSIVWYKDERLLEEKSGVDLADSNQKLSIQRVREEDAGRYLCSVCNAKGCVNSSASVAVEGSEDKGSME
# B1: PDGF-CC: recombinant human PDGF-CC core domain homodimer, residues 230-345 of full-length PDGF-C (SEQ ID NO:40), produced in baculovirus infected insect cells (protein)
# chain: GRKSRVVDLNLLTEEVRLYSCTPRNFSVSIREELKRTDTIFWPGCLLVKRCGGNCACCLHNCNECQCVPSKVTKKYHEVLQLRPKTGVRGLHKSLTDVALEHHEECDCVCRGSTGG
# modifications: homodimer; PDGF-C core domain
# Experiments:
# human VEGFR-3 = biological target: T1, human VEGFR-3; experiment: Binding to soluble VEGFR-3-Ig fusion protein; settings: 35S-labeled protein in conditioned medium from 293 cells, precipitation with Ig-fusion protein
# Description: To assess the interactions between full length and truncated PDGF-C and the VEGF receptors, full length and truncated PDGF-C were tested for their capacity to bind to soluble Ig-fusion proteins containing the extracellular domains of human VEGFR-1, VEGFR-2 and VEGFR-3 (Olofsson et al., Proc. Natl. Acad. Sci. USA, 1998 95:11709-11714). The fusion proteins, designated VEGFR-1-Ig, VEGFR-2-Ig and VEGFR-3-Ig, were transiently expressed in human 293 EBNA cells. All Ig fusion proteins were human VEGFRs. Cells were incubated for 24 hours after transfection, washed with Dulbecco's Modified Eagle Medium (DMEM) containing 0.2% bovine serum albumin and starved for 24 hours. The fusion proteins were then precipitated from the clarified conditioned medium using protein A-Sepharose beads (Pharmacia). The beads were combined with 100 microliters of 10× binding buffer (5% bovine serum albumin, 0.2% Tween 20 and 10 µg/ml heparin) and 900 microliter of conditioned medium from 293 cells that had been transfected with mammalian expression plasmids encoding full length or truncated PDGF-C or control vector, then metabolically labeled with ^35S-cysteine and methionine (Promix, Amersham) for 4 to 6 hours. […] Labeled proteins that were bound to the Ig-fusion proteins were analyzed by SDS-PAGE under reducing conditions. Radiolabeled proteins were detected using a phosphorimager analyzer.
# PDGFR-α = PDGFR-α activation in cultured hSMC and NIH-3T3 cells (immunoprecipitation, pTyr blot); type: cell-based; settings: treated cultured hSMC and NIH-3T3 fibroblast cells
# Description: RNase protection analysis (RPA) was performed according to the manufacturer's protocol (Ambion) to investigate gene expression at mRNA level. Riboprobes were prepared using RNA polymerase (Promega) and ^32P-UTP (Amersham). Mouse β-actin cDNA (250 bp, Ambion) was used as an internal control. For Western blot assay, subconfluent cells were rinsed with cold PBS supplemented with 5 µg/ml of antiprotease cocktail, lysed in RIPA buffer and analyzed on 10% acrylamide SDS PAGE in reducing condition. Two antibodies to PDGFR-α (rabbit polyclonal antibody, dilution: 1/500, Santa Cruz, sc431; and monoclonal peroxidase-labeled anti-rabbit antibody, dilution: 1/2500, Sigma, A-2074) were used for PDGFR-α protein detection. Membranes were developed using the Supersignal System (Pierce). […] The precipitants were analysed on SDS-PAGE, and immunoblotted using a monoclonal anti-phosphotyrosine antibody (Santa Cruz).
# The mitogenic and chemotactic effect of PDGF-CC was then tested on SMCs and perivascular fibroblast cells, and the effect of PDGF-CC was compared to that of VEGF and PDGF-AA in both cultured cells and the aortic ring assay (Blacher et al., Angiogenesis, 2001 4:133-42). […] In the aortic ring assay, we quantified the growth and emigration of perivascular fibroblasts from the intact vessel using computer-assisted image analysis after treatment with VEGF and different PDGFs at different concentrations. […]
molecule,measurement,setting,value
B1,interaction with VEGFR-3-Ig,human VEGFR-3,failed to show any interaction
same,PDGFR-α activation (pTyr),PDGFR-α,highly activated
